Results as given in US20260209355.

Key:
[1] = system: c-Myc conjugated and biotinylated human CD28 stalk region dimeric peptide (wild-type)
[2] = system: quenched fluorogenic peptide of the human CD28 stalk region with L145K
[3] = system: quenched fluorogenic peptide of the human CD28 stalk region (WT)

Sequence of c-Myc conjugated and biotinylated human CD28 stalk region dimeric peptide (wild-type) (chain, as listed by the source): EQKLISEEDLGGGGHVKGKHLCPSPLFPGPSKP

## Recombinant human MMP-13
[1]
  intact peptide by anti-Myc ELISA (25 and 50 ng enzyme, 5 hours): the WT peptide was cleaved in a dose dependent manner
[2]
  fluorescence from cleavage of quenched fluorogenic peptide (2.5 µM peptide, 30 ng enzyme): both were completely incapable of cleaving the mutant peptide
[3]
  fluorescence from cleavage of quenched fluorogenic peptide: MMP-13 also cleaves the stalk domain, but at a much lower rate and efficiency than MMP-2
  fluorescence from cleavage of quenched fluorogenic peptide (2.5 µM peptide, 30 ng enzyme): both enzymes efficiently cleaved the WT peptide
  fluorescence from cleavage of quenched fluorogenic peptide, titration of protease: the cleavage of the peptide was dose dependent
